Measurements published in the RNAGym collection of RNA variant scans (doi:10.7554/elife.90254).

B1: OR4K15 (parent)
chain: GUUAACGGUCAUAGGCCAUGGAAACUAGGAGCACCAUUUCGCUGCCAGUGAAGAAAUGAACAAAGAAAAUCUGGGCCAGGCAGGCAUCAAAAGAAAUAGUCUUGCGCUCAACCAGAAAGUCUGUAAUCAUUUUAAGGGUA

Variants of: B1
Experiment: self-cleavage, relative activity (ratio to wild type); higher = more cleavage; in vitro, sequencing; the parent is a self-cleaving ribozyme

Row | Variant | self-cleavage
1 | A5G C88U | 1.02
2 | A5G A62G | 0.59
3 | A4G U87C | 1.14
4 | U3A U127C | 0.63
5 | A5G U70C | 0.82
6 | U2C U26A | 0.37
7 | A5C U103C | 1.39
8 | U2C U122C | 0.25
9 | U2C U122G | 1.35
10 | A4G A24C | 1.03
11 | A4U A24G | 0.76
12 | U3C G28U | 2.64
13 | A4U U127C | 1.34
14 | U3C A114G | 0.47
15 | A4G G65C | 1.18
16 | U3G U37C | 1.52
17 | A5G A92U | 0.95
18 | A5G A11U | 0.86
19 | U3C A89C | 0.91
20 | A5C A117U | 0.56
21 | A4G A114C | 0.17
22 | A4U A95G | 1.65
23 | U3C A116G | 0.68
24 | A5C A33G | 0.87

Row | Variant | self-cleavage
25 | A4G A33U | 0.59
26 | U3G U26C | 0.94
27 | U3A A27G | 1.25
28 | U2C A118U | 0.44
29 | U2C A118G | 0.88
30 | A5G A125G | 0.42
31 | U3C A54C | 0.51
32 | A5G A68G | 0.89
33 | A5G C121A | 1.89
34 | A5G C121U | 1.14
35 | A5G U43C | 0.59
36 | A5G U43A | 1.49
37 | U3C A59G | 1.17
38 | U2C U120A | 1.03
39 | U2C G48U | 0.43
40 | U3G A24G | 0.8
41 | A4U A56G | 0.98
42 | A5G A36U | 1.13
43 | U3A A118G | 0.9
44 | A4C U100C | 1.19
45 | A5G U26C | 0.6
46 | U2C A140U | 1.55
47 | U2C U131C | 1.08
48 | U2C U131A | 1.39

Row | Variant | self-cleavage
49 | A5C A18G | 1.02
50 | U3C A62U | 1.22
51 | U3C A62G | 0.96
52 | A5G G15U | 0.82
53 | U2G A96U | 0.84
54 | U3C A111G | 0.03
55 | U3G U9A | 0.99
56 | U3C U49C | 0.5
57 | U2C U9A | 0.57
58 | U2C U9C | 0.83
59 | U3C A98U | 2.88
60 | A5G A86G | 0.63
61 | A5G A86U | 1.27
62 | U3C U19C | 1.88
63 | U3C A117U | 1.02
64 | U3A A4G | 1.4
65 | U3A A96G | 1.18
66 | U2G U39A | 0.87
67 | U3C A23G | 1.22
68 | A5C A47G | 1.1
69 | U3C A126U | 0.79
70 | U3C A126G | 0.58
71 | U2C U39G | 1.43
72 | U2C U39C | 0.7

Row | Variant | self-cleavage
73 | U2C U39A | 1.17
74 | U3G A5C | 1.53
75 | A5G A135G | 2.3
76 | U3C U103C | 1.12
77 | U2C A114U | 0.09
78 | A5C A23G | 1.28
79 | U3C U102A | 0.38
80 | A4G A78U | 0.63
81 | U2C G83A | 0.87
82 | A5G U19C | 0.96
83 | A5G U19A | 0.53
84 | U2C U97C | 0.55
85 | A4G U12C | 0.58
86 | A5G A56G | 0.66
87 | U3C A52G | 1.1
88 | A5G A94U | 0.8
89 | A5G A94G | 1
90 | U3C A36U | 1.33
91 | U3C A36G | 1.39
92 | U3C A110G | 0.19
93 | U3C A110U | 1.16
94 | A5G A54G | 1.04
95 | A5G A54U | 0.83
96 | U3A U130C | 1.09

Row | Variant | self-cleavage
97 | U3C A69G | 1.6
98 | A4G A36U | 0.79
99 | A5G A78U | 0.46
100 | A5G A78G | 0.43
101 | U3C A60C | 0.91
102 | U2G A89G | 0.3
103 | A5G A116U | 0.25
104 | U3A A68G | 2.27
105 | U3C A78U | 0.51
106 | A5G G137A | 0.6
107 | U3C A68G | 0.86
108 | U3C A68C | 1.6
109 | A5C A36U | 1.59
110 | U3G A59G | 0.68
111 | U2C C45G | 1.29
112 | U3G G41U | 1
113 | A5C A95G | 0.99
114 | A5G G65A | 0.9
115 | A4G U122A | 1.37
116 | U3C A22U | 1.12
117 | U2C U72A | 0.1
118 | U2C U72C | 0.15
119 | A5G A55G | 1.15
120 | A5C A110G | 0.33

Row | Variant | self-cleavage
121 | U3C U108C | 0.04
122 | A5C C17U | 0.39
123 | U3C U38C | 0.98
124 | U2C U87C | 0.43
125 | A4U U57C | 0.65
126 | A4U U57A | 1.53
127 | A4G G138A | 0.99
128 | A4G A18U | 1.25
129 | U3A U122C | 1.35
130 | U3A A11G | 1.03
131 | A5G A111G | 0.08
132 | A4G A95C | 1.49
133 | A4G A95G | 1.4
134 | U2C U132A | 1.23
135 | U2C A116G | 0.6
136 | A5C A56G | 1.05
137 | A4G A5G | 1.25
138 | U3C A95G | 1.02
139 | U2G A69U | 0.94
140 | A5G A24U | 0.83
141 | A5G A24G | 1.14
142 | A5G U57C | 0.68
143 | A4G U19A | 0.78
144 | A4G U19C | 1.78

Row | Variant | self-cleavage
145 | U3A A55C | 1.31
146 | A4G U120A | 1.62
147 | U3C C71U | 0.12
148 | U3C C71A | 0.16
149 | A5C U102A | 1.35
150 | U3C A135G | 0.99
151 | U3A U102C | 1.99
152 | A4G A55G | 1.13
153 | U3A A47C | 1.17
154 | U2C U19A | 1.16
155 | U2C U19C | 0.96
156 | A5G A30U | 1.14
157 | U2C C105U | 0.03
158 | U2C U100C | 1.61
159 | A4G G14A | 1.05
160 | U2C A126G | 1.22
161 | A4G G41A | 1.43
162 | U3A A67U | 0.46
163 | A5G C128G | 0.8
164 | A4G A110G | 0.4
165 | U3C A94G | 2.02
166 | U2C A117U | 1.05
167 | U3C A134U | 0.67
